Key:
[1] = Western blot, stable 2TS22C cells; details: glycan lost; control: WT FLAG-Sox2
[2] = 3D z-stack immunofluorescence, 2TS22C cells; details: glycan lost; control: WT FLAG-Sox2
Western blot = details: glycan lost; control: E14 cells
[3] = immunofluorescence confocal microscopy; details: glycan lost; control: E14 cells

Sequence of Sox2: E14-Sox2TA/WT (chain, as listed by the source): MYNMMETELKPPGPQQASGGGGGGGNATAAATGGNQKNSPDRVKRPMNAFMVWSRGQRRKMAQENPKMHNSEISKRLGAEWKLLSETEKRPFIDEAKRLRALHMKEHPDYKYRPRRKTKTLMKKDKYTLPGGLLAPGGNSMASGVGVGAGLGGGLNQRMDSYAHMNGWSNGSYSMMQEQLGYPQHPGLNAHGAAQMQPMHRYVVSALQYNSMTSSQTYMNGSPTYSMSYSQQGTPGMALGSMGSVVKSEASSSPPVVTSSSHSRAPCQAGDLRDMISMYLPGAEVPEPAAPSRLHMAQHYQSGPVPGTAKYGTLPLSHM
Sequence of Sox2: T258A (chain, as listed by the source T258A): as the sequence (chain, as listed by the source) above
Sequence of Sox2: S248A (chain, as listed by the source S248A): as the sequence (chain, as listed by the source) above
Sequence of Sox2: S248A/T258A (chain, as listed by the source S248A T258A): as the sequence (chain, as listed by the source) above

Row | Substance | expression_or_secretion [1] | localisation_or_trafficking [2] | expression_or_secretion (Western blot) | localisation_or_trafficking [3]
1 | Sox2: T258A | no change | no change |  | 
2 | Sox2: S248A/T258A | no change |  |  | 
3 | Sox2: S248A | no change |  |  | 
4 | Sox2: E14-Sox2TA/WT |  |  | no change | no change

Reference: article PMC8639819
